Data as given in US20210230294A1 (Incyte, published 2021).

Columns and labels:
[1] = biological target: T1, recombinant human CD73 (SEQ ID NO:70) (human, UniProt P21589 27-549); experiment: SPR (Biacore 8K), antibody captured on anti-human Fc, CD73 as analyte, open conformation
T1 construct: Soluble recombinant protein in normal SPR running buffer (open conformation), the soluble enzyme assay and HDX-MS; SPR stock bought from BPS Bioscience; also called rhuCD73; CD73 in the open conformation
T1 sequence: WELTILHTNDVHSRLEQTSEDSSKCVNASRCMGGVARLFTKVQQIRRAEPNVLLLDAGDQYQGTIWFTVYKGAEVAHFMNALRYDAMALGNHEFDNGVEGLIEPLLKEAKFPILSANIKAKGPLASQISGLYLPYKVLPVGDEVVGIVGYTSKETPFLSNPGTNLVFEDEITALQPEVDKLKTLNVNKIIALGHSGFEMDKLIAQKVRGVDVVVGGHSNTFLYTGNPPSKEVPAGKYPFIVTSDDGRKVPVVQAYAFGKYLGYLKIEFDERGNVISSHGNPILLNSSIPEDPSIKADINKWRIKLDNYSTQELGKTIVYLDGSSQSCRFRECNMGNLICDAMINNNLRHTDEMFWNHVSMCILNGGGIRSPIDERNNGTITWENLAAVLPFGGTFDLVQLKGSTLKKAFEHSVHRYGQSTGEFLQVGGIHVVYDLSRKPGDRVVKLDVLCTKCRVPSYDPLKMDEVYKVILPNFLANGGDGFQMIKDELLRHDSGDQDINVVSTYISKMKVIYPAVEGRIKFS
Description: (§1) The SPR running buffer (10 mM HEPES, 150 mM NaCl, 3 mM EDTA and 0.05% v/v Surfactant P20, pH 7.4) was prepared from 10×HBS-EP Buffer (GE Healthcare). Anti-human Fc antibodies (GE Healthcare) were immobilized via amine coupling on all sixteen flow cells of an S series sensor chip CM5 (GE Healthcare). The immobilization levels were ˜9000 RU for all flow cells. […] The non-cleavable ADP analogue APCP (adenosine-5′-(α,β-methylene) diphosphate) with the presence of Zn²⁺ can be used to shift the CD73 conformational equilibrium from open towards closed. Therefore, recombinant CD73 was incubated with SPR running buffer in the presence of 100 μM APCP and 10 μM ZnCl₂ (closed SPR running buffer) to study the binding of anti-CD73 antibody to the CD73 in the closed conformation. To achieve this, the ABA injection feature in Biacore 8K was used. For open conformation, the ABA injection sequence started with 60 seconds injection of running buffer. Then, CD73 3-fold serial dilution concentration series prepared from CD73 stock (BPS Bioscience) and running buffer were injected for 180 seconds immediately followed by running buffer for 240 seconds. For closed conformation, the normal SPR running buffer was replaced by closed SPR running buffer. Surface was regenerated with 30 seconds injection of 3 M MgCl₂.

[2] = biological target: T2, cynomolgus CD73 (SEQ ID NO:72) (cynomolgus, UniProt P21589 27-549 (human entry)); experiment: as above
T2 construct: Open conformation (normal SPR running buffer)
T2 chain: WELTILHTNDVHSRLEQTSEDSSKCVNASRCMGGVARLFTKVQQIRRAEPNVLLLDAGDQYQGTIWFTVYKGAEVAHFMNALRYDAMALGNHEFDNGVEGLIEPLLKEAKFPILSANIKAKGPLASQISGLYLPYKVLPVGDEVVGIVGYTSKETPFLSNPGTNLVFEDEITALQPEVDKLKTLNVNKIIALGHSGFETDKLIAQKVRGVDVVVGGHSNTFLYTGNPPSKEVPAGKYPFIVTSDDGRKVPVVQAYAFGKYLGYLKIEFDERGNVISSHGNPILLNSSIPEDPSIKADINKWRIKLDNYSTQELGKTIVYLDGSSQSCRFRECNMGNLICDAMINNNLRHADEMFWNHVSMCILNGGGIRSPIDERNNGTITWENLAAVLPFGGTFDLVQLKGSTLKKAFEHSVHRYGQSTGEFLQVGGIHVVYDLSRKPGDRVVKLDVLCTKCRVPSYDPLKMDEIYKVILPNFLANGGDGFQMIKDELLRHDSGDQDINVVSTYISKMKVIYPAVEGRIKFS
Description: as §1

[3] = biological target: T3, mouse CD73 (SEQ ID NO:71) (mouse, UniProt Q61503 29-551); experiment: as above
T3 construct: Open conformation (normal SPR running buffer); also called Murine; murine CD73
T3 sequence: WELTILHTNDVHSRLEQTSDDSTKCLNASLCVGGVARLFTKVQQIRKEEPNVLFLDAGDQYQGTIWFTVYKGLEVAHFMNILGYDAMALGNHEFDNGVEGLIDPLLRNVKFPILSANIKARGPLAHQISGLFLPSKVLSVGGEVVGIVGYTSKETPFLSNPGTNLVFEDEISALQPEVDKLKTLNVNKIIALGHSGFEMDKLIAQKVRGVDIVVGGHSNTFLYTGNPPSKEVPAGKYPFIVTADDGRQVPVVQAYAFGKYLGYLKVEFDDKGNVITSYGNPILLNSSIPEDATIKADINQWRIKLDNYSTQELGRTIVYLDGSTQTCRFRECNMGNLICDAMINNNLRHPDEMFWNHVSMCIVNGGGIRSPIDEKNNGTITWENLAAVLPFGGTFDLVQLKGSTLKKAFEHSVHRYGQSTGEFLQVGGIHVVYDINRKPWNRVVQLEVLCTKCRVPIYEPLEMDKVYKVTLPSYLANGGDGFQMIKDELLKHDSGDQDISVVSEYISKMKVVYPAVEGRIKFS
Description: as §1

[4] = biological target: T4, recombinant human CD73 in the closed conformation (human, UniProt P21589 27-549); experiment: SPR (Biacore 8K), antibody captured on anti-human Fc, CD73 as analyte, buffer with APCP and ZnCl2 (closed conformation)
T4 construct: Kept apart from m1 because results differ between the two states; also called human CD73, Closed
T4 sequence: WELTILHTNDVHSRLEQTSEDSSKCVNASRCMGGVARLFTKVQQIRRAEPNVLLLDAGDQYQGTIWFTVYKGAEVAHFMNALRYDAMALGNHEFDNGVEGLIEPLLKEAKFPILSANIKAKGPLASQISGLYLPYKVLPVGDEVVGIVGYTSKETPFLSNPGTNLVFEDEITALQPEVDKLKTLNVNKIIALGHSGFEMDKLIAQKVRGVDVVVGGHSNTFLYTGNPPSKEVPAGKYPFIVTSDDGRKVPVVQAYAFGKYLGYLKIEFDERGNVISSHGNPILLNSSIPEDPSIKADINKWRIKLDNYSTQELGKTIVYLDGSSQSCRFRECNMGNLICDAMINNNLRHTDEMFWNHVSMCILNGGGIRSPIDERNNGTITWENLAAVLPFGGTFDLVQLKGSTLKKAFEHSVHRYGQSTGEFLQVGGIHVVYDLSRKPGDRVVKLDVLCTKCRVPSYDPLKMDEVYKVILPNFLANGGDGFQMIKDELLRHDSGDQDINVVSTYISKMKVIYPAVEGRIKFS
Description: as §1

[5] = biological target: T5, cynomolgus CD73 in the closed conformation (cynomolgus, UniProt P21589 27-549 (human entry)); experiment: as above
T5 construct: Same protein as m2 in buffer with 100 uM APCP and 10 uM ZnCl2 (closed conformation); also called Cynomolgus, Closed
T5 chain: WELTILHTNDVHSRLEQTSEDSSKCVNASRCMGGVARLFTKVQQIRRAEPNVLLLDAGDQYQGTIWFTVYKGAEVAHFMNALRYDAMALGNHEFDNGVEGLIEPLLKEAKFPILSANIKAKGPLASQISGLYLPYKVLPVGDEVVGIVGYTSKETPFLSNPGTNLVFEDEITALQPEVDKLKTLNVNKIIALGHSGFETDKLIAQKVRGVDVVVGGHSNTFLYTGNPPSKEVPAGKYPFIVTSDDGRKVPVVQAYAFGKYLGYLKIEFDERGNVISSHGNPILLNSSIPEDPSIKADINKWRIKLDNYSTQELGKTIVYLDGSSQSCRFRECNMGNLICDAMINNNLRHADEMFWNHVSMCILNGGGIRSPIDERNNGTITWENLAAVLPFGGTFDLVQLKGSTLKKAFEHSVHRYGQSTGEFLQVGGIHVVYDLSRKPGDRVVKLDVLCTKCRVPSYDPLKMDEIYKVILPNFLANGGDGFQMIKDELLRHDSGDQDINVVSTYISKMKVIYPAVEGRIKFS
Description: as §1

[6] = biological target: T6, mouse CD73 in the closed conformation (mouse, UniProt Q61503 29-551); experiment: as above
T6 construct: Same protein as m3 in buffer with 100 uM APCP and 10 uM ZnCl2 (closed conformation); also called Murine, Closed
T6 sequence: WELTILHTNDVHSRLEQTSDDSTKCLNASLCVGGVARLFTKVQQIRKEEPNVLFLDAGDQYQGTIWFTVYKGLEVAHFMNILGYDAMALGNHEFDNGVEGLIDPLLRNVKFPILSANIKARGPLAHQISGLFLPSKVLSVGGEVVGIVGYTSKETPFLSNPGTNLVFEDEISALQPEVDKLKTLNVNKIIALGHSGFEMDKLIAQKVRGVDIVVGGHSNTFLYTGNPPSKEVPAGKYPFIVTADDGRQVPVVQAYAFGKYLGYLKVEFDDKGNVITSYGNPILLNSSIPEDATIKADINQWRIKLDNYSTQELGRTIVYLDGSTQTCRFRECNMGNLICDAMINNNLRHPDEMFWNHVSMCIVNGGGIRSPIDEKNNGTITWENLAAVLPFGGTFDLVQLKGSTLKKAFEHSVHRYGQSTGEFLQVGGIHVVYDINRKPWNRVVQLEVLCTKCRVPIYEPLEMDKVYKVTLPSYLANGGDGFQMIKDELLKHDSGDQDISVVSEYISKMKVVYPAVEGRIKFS
Description: as §1

B1: CL25 (chimeric antibody, murine VH/VL with human IgG1/kappa constant regions) (antibody, V domains shown)
VH: QVQLQQSGAELARPGASVKLSCRASGYTFTSYGLSWVKQRTGQGLEWIGEIYPGSGNTYYNEKFKGKATLTADKSSSTAYMELRSLTSEDSAVYFCARYDYLGSSYGFDYWGQGTTLTVSS
VL: DIVMTQSHKFMSTSVGDRVSITCKASQDVSTAVAWYQQKPGQSPKLLIYSASYRYNGVPDRFTGSGSGTDFTFTISSVQAEDLAVYYCQQHYNTPYTFGGGTKLEIKR
notes: also called Chimeric antibody CL25
Binder B1 has a Kd [1] of less than 0.394 nM, a koff [1] of 0.000394 s⁻¹ and a kon [1] greater than 1e+06 M⁻¹ s⁻¹. It also gave a Kd [2] of less than 0.658 nM, a koff [2] of 0.000658 s⁻¹ and a kon [2] greater than 1e+06 M⁻¹ s⁻¹. The binding result [3] was “no binding”, the Kd [4] was 0.381 nM and the koff [4] was 0.000344 s⁻¹. The kon [4] was 903000 M⁻¹ s⁻¹, the Kd [5] was 0.529 nM and the koff [5] was 0.000495 s⁻¹. For the same binder, the kon [5] was 936000 M⁻¹ s⁻¹ and the binding result [6] was “no binding”.
